# According to PMC9757060 (Nucleic Acids Research, 2022):
# Where a chain is given by its changes, count along the chain named. Names and notes keep the numbering of the source.
# T1: mouse UHRF1 PHD finger (residues 304–372) (mouse, UniProt Q8VDF2 304-372)
# T1 sequence (looked up): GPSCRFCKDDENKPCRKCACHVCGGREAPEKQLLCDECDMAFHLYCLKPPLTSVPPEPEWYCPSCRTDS
# T2: mouse UHRF1 PHD finger (residues 304–372) L337A (mouse, UniProt Q8VDF2 304-372, L337A)
# T2 sequence (looked up): T1 sequence (looked up) with L34A
# B1: mDPPA3 residues 76–127 followed by an additional Trp (mDPPA3 76–128W) (domain or fragment, mouse)
# chain: RREVQSAFPKRRVRTLLSVLKDPIAKMRRLVRIEQRQKRLEGNEFERDSEPFW
# B2: mDPPA3 76–128W R104A (domain or fragment, mouse)
# chain: B1 chain with R29A
# B3: mDPPA3 76–128W R89A (domain or fragment, mouse)
# chain: B1 chain with R14A
# B4: mDPPA3 76–128W L91A/V94A (domain or fragment, mouse)
# chain: B1 chain with L16A, V19A
# Legend:
# Assay in all cases: ITC
# [1] = target: mouse UHRF1 PHD finger (residues 304–372) (mouse) (UniProt Q8VDF2)
# [2] = target: T1, mouse UHRF1 PHD finger (residues …)
# [3] = target: T2, mouse UHRF1 PHD finger (residues …)
molecule,measurement,setting,value
N-terminal tail of PAF15 (PCNA-associated factor 15) (peptide),Kd,[1],3520 nM
"KRRVRTLLSVLKDPIAKMRRLVRIEQRQKRLEGN (peptide, UniProt Q8QZY3 85-118, looked up) [mDPPA3 residues 85–118]",Kd,[2],45 nM
B1,Kd,[3],> 43000 nM
same,Kd,[2],27.7 nM
B2,binding result,[2],binds
B3,Kd,[2],361 nM
B4,Kd,[2],1080 nM
